This is an account of results in US11732048B2, “Anti-axl antagonistic antibodies” (BERGEN TEKNOLOGIOVERFØRING AS, priority 2016, dated 2023).

Test [1] has as its target T1, mouse Axl (rmAxl-Fc chimera; Mm-Axl-Fc) (Mus musculus, UniProt Q00993).
T1 construct: The soluble recombinant antigens corresponding to human Axl (rhAxl-Fc chimera; R&D Systems, Cat. no; 154-AL), mouse Axl (rmAxl-Fc chimera; Fc; purchased R&D Systems 854-AX
The test is described as follows: Biacore binding analysis on immobilised mouse Axl. As for the experimental part:
(§1) The binding experiments were performed using Biacore 3000 instrument (GE Healthcare) at 25° C. The soluble recombinant antigens corresponding to human Axl (rhAxl-Fc chimera; R&D Systems, Cat. no. 154-AL), mouse Axl (rmAxl-Fc chimera; R&D Systems, R&D Systems; Cat. no. 854-AX) and human Tyro3 (rhTyro3/Dtk-Fc chimera; R&D Systems, Cat. no. 859-DK) were immobilized on the surface of CM5 sensor chip using amine coupling at the surface density of 1,308.0, 2,115.9 and 1,429.0 RU, respectively. The Biacore runs were performed in an automatic mode using Binding analysis wizard.
(§2) The sample containing MAb 10G5 or recombinant mouse (rm) Axl-ligand Gas6 (R&D Systems, Cat. no. 986-GS/CF) at concentration 10 μg/mL in HBS-EP buffer (GE Healthcare) was injected over the surfaces with immobilized antigens at flow rate of 30 μL/min for 3 min (association) followed by 5 min dissociation.
Sensor chip with immobilised Axl: Hs-Axl-Fc (638.2 RU), Mm-Axl-Fc (334.5 RU), Rhe-Axl-Fc (350.2 RU)
All tests were performed in parallel on Hs-Axl-Fc, Mm-Axl-Fc and Rhe-Axl-Fc surfaces.
A general note: In SPR one partner is held on a chip, and binding of the other changes the refractive index at the surface.

The target in test [2] is T2, human Axl (rhAxl-Fc chimera) (Homo sapiens, UniProt P30530).
T2 construct: Soluble recombinant antigens corresponding to the extracellular domains of members of the human TAM receptor family; Fc; purchased R&D Systems 154-AL
The experiment in a line: Biacore binding analysis on immobilised human Axl. Conditions: 10 μg/mL in HBS-EP, 25° C. As for the experimental part:
(§3) All binding experiments were performed using Biacore 3000 instrument (GE Healthcare) at 25° C. Soluble recombinant antigens corresponding to the extracellular domains of members of the human TAM receptor family, Axl (rhAxl-Fc chimera; R&D Systems, Cat. no. 154-AL), Mer (rhMer-Fc chimera; R&D Systems, Cat. no. 891-MR) and Tyro3 (rhTyro3/Dtk-Fc chimera; R&D Systems, Cat. no. 859-DK) were immobilized on the surface of CM5 sensor chip using amine coupling at the surface density of 393.0, 303.6 and 364.0 resonance units (RU), respectively. The Biacore run was performed in an automatic mode using Binding analysis wizard. Samples containing MAb 10G5 at concentration 10 μg/mL in HBS-EP buffer (GE Healthcare) were injected over the surfaces with immobilized antigens at flow rate of 30 μL/min for 3 min (association) followed by 5 min dissociation.
as §1, §2
The sequence of Axl receptor from cynomolgus monkey (Macaca fascicularis; SEQ ID NO: 27) was retrieved from WO2009062690A1. Based on the sequence, recombinant extracellular domain of cyno-Axl was generated by transient expression in CHO cells as a fusion protein with human Fc. The recombinant cyno-Axl-Fc was purified to homogeneity using Protein A-Sepharose (GE Healthcare). The binding experiments were performed using Biacore 3000 instrument (GE Healthcare) at 25° C. The soluble recombinant antigens corresponding to human Axl (rhAxl-Fc chimera; R&D Systems, Cat. no. 154-AL) and cyno-Axl were immobilized on the surface of CM5 sensor chip using amine coupling at the surface density of 775 and 880 RU, respectively. The Biacore runs were performed in an automatic mode using Binding analysis wizard.
The sample containing MAb 10G5 or human Axl-specific MAb 5F11 (control) at concentration 10 μg/mL in HBS-EP buffer (GE Healthcare) was injected over the surfaces with immobilized antigens at flow rate of 30 μL/min for 3 min (association) followed by 5 min dissociation. […]

The target of test [3] is T3, Tyro3 (rhTyro3/Dtk-Fc chimera) (Homo sapiens, UniProt Q06418).
T3 construct: Soluble recombinant antigens corresponding to the extracellular domains of members of the human TAM receptor family; Fc; purchased R&D Systems 859-DK
T3 sequence (Q06418 41-429 limits assumed): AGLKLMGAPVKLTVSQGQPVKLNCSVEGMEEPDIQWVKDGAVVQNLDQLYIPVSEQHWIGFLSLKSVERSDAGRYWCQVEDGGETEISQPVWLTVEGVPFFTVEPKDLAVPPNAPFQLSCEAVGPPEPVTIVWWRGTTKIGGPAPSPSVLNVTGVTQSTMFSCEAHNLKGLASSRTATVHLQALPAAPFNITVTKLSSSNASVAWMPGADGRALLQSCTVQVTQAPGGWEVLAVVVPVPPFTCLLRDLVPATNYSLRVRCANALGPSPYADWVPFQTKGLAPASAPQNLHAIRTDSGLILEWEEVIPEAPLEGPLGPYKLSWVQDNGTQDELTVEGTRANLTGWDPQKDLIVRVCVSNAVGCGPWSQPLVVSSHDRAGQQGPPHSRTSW
The test is described as follows: Biacore binding analysis on immobilised human Tyro3. Conditions: 10 μg/mL in HBS-EP, 25° C. As for the experimental part:
as §3, §1, §2

Test [4] addresses T2, human Axl (rhAxl-Fc chimera). The test is described as follows: Biacore kinetic analysis (surface plasmon resonance) on immobilised rhAxl-Fc. In kind it is binding. As to the method: Kinetic analysis of murine MAb 10G5 interacting with rhAxl immobilized on the surface of the Biacore sensor chip. Overlay plots of sensograms for different antibody concentrations (0.3-166.7 nM for murine 10G5) are shown. The precise kinetic analysis was performed using BIA evaluation software and curve fitting according to 1:1 Langmuir binding model. […]
Affinity determination of anti-Axl antibody 10G5 was performed at 25° C. by surface plasmon resonance measurements using Biacore 3000 instrument (GE Healthcare). As a solid antigen-coated surface, a sensor chip CM5 with immobilized rhAxl-Fc chimera (R&D Systems, Cat. no. 154-AL) at density 190 RU was used.
For the kinetics measurements, different concentrations of anti-Axl antibodies (from 0.3 to 666.7 nM) in HBS-EP buffer (Biacore, Cat. no. BR-1001-88) were injected at flow rate of 30 μL/min with 3 min injection time followed by 5 min dissociation (buffer alone). After each cycle, the surface was regenerated by 30 sec injection of a regeneration solution (10 mM HCl, 1 M NaCl) at flow rate 50 μL/min.
The kinetic association (on-rate, kon) and dissociation (off-rate, koff) rates were calculated using BIAevaluation software and 1:1 Langmuir binding model. The equilibrium dissociation constant (KD) was calculated as the koff/kon ratio. The half-life (t1/2) of the formed antibody-antigen complexes was calculated as the ln 2/koff ratio. […]

[5] abbreviates: rhAxl immobilized on Biacore sensor chip, 25° C., 1:1 Langmuir binding model.

Read-outs that look alike come from different tables or passages of the source.

T1 sequence (Q00993 19-445 limits assumed, change not shown): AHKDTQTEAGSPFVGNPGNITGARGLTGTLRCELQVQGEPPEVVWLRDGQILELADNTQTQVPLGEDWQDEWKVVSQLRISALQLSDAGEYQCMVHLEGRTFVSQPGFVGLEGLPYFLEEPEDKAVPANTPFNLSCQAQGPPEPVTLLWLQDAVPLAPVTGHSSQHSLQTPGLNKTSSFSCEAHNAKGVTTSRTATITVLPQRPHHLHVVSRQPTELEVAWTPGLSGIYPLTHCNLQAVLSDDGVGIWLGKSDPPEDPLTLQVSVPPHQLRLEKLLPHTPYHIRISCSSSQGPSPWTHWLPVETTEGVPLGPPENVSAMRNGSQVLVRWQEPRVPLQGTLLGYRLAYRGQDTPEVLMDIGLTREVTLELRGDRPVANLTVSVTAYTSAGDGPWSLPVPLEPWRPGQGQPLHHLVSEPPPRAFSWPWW

B1: mouse Gas6: recombinant mouse Axl-ligand Gas6 (R&D Systems) (protein)
chain: QCTPNPCDKKGTHICQDLMGNFFCVCTDGWGGRLCDKDVNECVQKNGGCSQVCHNKPGSFQCACHSGFSLASDGQTCQDIDECTDSDTCGDARCKNLPGSYSCLCDEGYTYSSKEKTCQDVDECQQDRCEQTCVNSPGSYTCHCDGRGGLKLSPDMDTCEDILPCVPFSMAKSVKSLYLGRMFSGTPVIRLRFKRLQPTRLLAEFDFRTFDPEGVLFFAGGRSDSTWIVLGLRAGRLELQLRYNGVGRITSSGPTINHGMWQTISVEELERNLVIKVNKDAVMKIAVAGELFQLERGLYHLNLTVGGIPFKESELVQPINPRLDGCMRSWNWLNGEDSAIQETVKANTKMQCFSVTERGSFFPGNGFATYRLNYTRTSLDVGTETTWEVKVVARIRPATDTGVLLALVGDDDVVPISVALVDYHSTKKLKKQLVVLAVEDVALALMEIKVCDSQEHTVTVSLREGEATLEVDGTKGQSEVSTAQLQERLDTLKTHLQGSVHTYVGGLPEVSVISAPVTAFYRGCMTLEVNGKILDLDTASYKHSDITSHSCPPVEHATP
On to B1, for which the “Binding to mouse Axl” value is reported as “strong binding” in test [1] and “binds strongly” in test [1] (listed as murine Gas 6). In addition, the results for the “Binding to human Axl” value in test [2] and in test [2] (listed as murine Gas 6) were “strong binding” and “binds strongly”, respectively. Besides, the “Binding to recombinant human Tyro3” value in test [3] was “somewhat weaker binding”; in test [3] (listed as murine Gas 6), “more weakly”.

B2: H1L1: humanised 10G5 variant; presumably VH GH1 (SEQ ID NO: 1) with VL GL1 (SEQ ID NO: 3) (antibody, V domains shown)
VH: EVQLVQSGAGLVQPGGSVRLSCAASGYSFTDFYINWVRQAPGKGLEWIARIFPGGDNTYYNEKFKGRFTLSADTSSSTAYLQLNSLRAEDTAVYYCARRGLYYAMDYWGQGTLVTVSS
VL: DIQMTQSPSSLSASVGDRVTITCRSSQSLVHSNGIPYLHWYQQKPGKAPKLLIYRVSNRFSGVPSRFSGSGSGTDFTLTISSLQPEDFATYYCSQGTHVPPTFGQGTKVEIK
modifications: hu10G5 VH(GH1); hu10G5 VL(GL1)
Turning to B2, the “KD lower than that of the chimeric antibody” value in test [4] (comparison referring to Table 3) was “at least 30%”. Moreover, in test [4] (setting [5]), the “Off-rate (koff)” value was determined as 0.000161 s⁻¹ and the “On-rate (kon)” value was determined as 1.54e+06 M⁻¹ s⁻¹.
